Source: patent US20240209109A1

B1: 2p1130 anti-Claudin 18.2/CD40 bispecific antibody (bispecific antibody, part only; not given: Claudin 18.2 Fab arms, constant regions, linker, V domains shown, not shown: another chain or arm of the molecule; a dimerising Fc or GST; small tags and cut ends)
VHH: EVQVVESGGGLVQPGGSLRLTCAASGFSVDDYGIGWFRQAPGREREGVACITPNGLMMNFANTVGSVAGRFSASRDSGENTVSLQMSSLKPEDTAIYFCAHSRDDSCRGSLSDYDDWGQGTQVTVSS
B2: 42p155 anti-Claudin 18.2/CD40 bispecific antibody (bispecific antibody, part only; not given: Claudin 18.2 Fab arms, constant regions, linker, V domains shown, not shown: another chain or arm of the molecule; a dimerising Fc or GST; small tags and cut ends)
VHH: PSQLVESGGGLVQPGGSLRLSCAASGFAFRSYTMSWVRQAPGKGLEWVSTITHNGAITTYAESAQGRFTISRDNAKNTLYLQMNSLKPEDTAVYYCAQGGGSNYYRESWGQGTQVTVSS
B3: 2p834 anti-Claudin 18.2/CD40 bispecific antibody (bispecific antibody, part only; not given: Claudin 18.2 Fab arms, constant regions, linker, V domains shown, not shown: another chain or arm of the molecule; a dimerising Fc or GST; small tags and cut ends)
VHH: QSQLVESGGGLVQPGGSLRLSCAASGFAFRRYTMSWVRQAPGKGLEWVSTITHNGSITTYAESAQGRFTISRDNAKNTLYLQMNSLKPEDTAVYYCAQGGGSNYYRESWGQGTQVTVSS
B4: 2p931 anti-Claudin 18.2/CD40 bispecific antibody (bispecific antibody, part only; not given: Claudin 18.2 Fab arms, constant regions, linker, V domains shown, not shown: another chain or arm of the molecule; a dimerising Fc or GST; small tags and cut ends)
VHH: AVQLVESGGGLVQPGGSLRLSCAASGFSFRNYMMNWVRQAPGKGLECLSSITSAGDITSYTESVKGRFTISRDNAKNTLYLQMNSLKPEDTAVYYCAQGGCGNYYRESWGQGTQVTVSS
B5: 42p655 anti-Claudin 18.2/CD40 bispecific antibody (bispecific antibody, part only; not given: Claudin 18.2 Fab arms, constant regions, linker, V domains shown, not shown: another chain or arm of the molecule; a dimerising Fc or GST; small tags and cut ends)
VHH: AVQLVESGGGLVQPGGSLRLSCAASGFAFRRYTMSWVRQAPGKGLEWVSSITDNGSITTYAESAQGRFTISRDNAKNTLYLQMNSLKPEDTAVYHCAQGGGSNYYRESWGQGTQVTVSS
B6: 2p1294 anti-Claudin 18.2/CD40 bispecific antibody (bispecific antibody, part only; not given: Claudin 18.2 Fab arms, constant regions, linker, V domains shown, not shown: another chain or arm of the molecule; a dimerising Fc or GST; small tags and cut ends)
VHH: QVQLVESGGGLVQPGGSLRLSCAASGFSFRRYTMSWVRQAPGKGLEWVSAISDNGAITTYTESAQGRFTISRDNAKNTLYLQMNSLKPEDTAVYYCAQGGGSNYYRESWGQGTQVTVSS
B7: 2p957 anti-Claudin 18.2/CD40 bispecific antibody (bispecific antibody, part only; not given: Claudin 18.2 Fab arms, constant regions, linker, V domains shown, not shown: another chain or arm of the molecule; a dimerising Fc or GST; small tags and cut ends)
VHH: PVQLVESGGGLVQPGGSLRLSCAASGFSFRNYIMSWVRQAPGKGLEWLSSITNSGGITSYTESVKGRFTISRDNAKNTLYLQMNSLKPEDTAVYYCAQGGSDNYYRGSWGQGTQVTVSS
B8: 42p495 anti-Claudin 18.2/CD40 bispecific antibody (bispecific antibody, part only; not given: Claudin 18.2 Fab arms, constant regions, linker, V domains shown, not shown: another chain or arm of the molecule; a dimerising Fc or GST; small tags and cut ends)
VHH: PVQLVESGGNLVQPGGSLRLSCVAPGFTSRNSAMSWVRQAPGKGLEWVSTIYSGKSNTDYADSVKGRFTISTDNAKNTLYLHMNKLKSEDTAVYYCAKGAASDWYVPRDYWGQGTQVTVSS
B9: 3p78 anti-Claudin 18.2/CD40 bispecific antibody (bispecific antibody, part only; not given: Claudin 18.2 Fab arms, constant regions, linker, V domains shown, not shown: another chain or arm of the molecule; a dimerising Fc or GST; small tags and cut ends)
VHH: PVQLVESGGGLVQPGGSLRLSCAASGFTFRNYAMSWVRQAPGKGLEWVSTITHNGAITTYAESAQGRFTISRDNAKNTLYLQMNSLKPEDTAVYYCAQGGGSNYYRESWGQGTQVTVSS
B10: 2p415 anti-Claudin 18.2/CD40 bispecific antibody (bispecific antibody, part only; not given: Claudin 18.2 Fab arms, constant regions, linker, V domains shown, not shown: another chain or arm of the molecule; a dimerising Fc or GST; small tags and cut ends)
VHH: QLHFVESGGGLVQPGGSLRLSCAASGFTLDHYAMGWFRQAPGKEREGVSCISGGGSTRYADSAKGRFTISRDNAKNTVYLQMNSLTPEDTAVYYCAAARLLSRNCVPRDSGSWGQGTQVTVSS
B11: 2p442 anti-Claudin 18.2/CD40 bispecific antibody (bispecific antibody, part only; not given: Claudin 18.2 Fab arms, constant regions, linker, V domains shown, not shown: another chain or arm of the molecule; a dimerising Fc or GST; small tags and cut ends)
VHH: QVQLVESGGGLVQPGGSLRLSCVASGFTLDYFAIGWFRQAPGKEREGVSCISGGGSTRYADSVKGRFTISRDNAKNTVYLQMNSLTPEDTAVYYCAAARLLSRNCVPRDSGSWGQGTQVTVSS
B12: 2p551 anti-Claudin 18.2/CD40 bispecific antibody (bispecific antibody, part only; not given: Claudin 18.2 Fab arms, constant regions, linker, V domains shown, not shown: another chain or arm of the molecule; a dimerising Fc or GST; small tags and cut ends)
VHH: QLHFVESGGGLVQPGGSLRLSCAASGFTLDYYAIGWFRQAPGKEREGVSCISGGGSTRYADSVKGRFTISRDNAKNTVYLQMNSLTPEDTAVYYCAAARLLSTNCVPRDSGSWGQGTQVTVSS

Molecular target: human CD40-His protein (human) (UniProt P25942)
Test: SPR Biacore T200, antibody captured on Protein A, CD40-His injected

Chain of human CD40-His protein (human) (P25942 21-193 limits assumed): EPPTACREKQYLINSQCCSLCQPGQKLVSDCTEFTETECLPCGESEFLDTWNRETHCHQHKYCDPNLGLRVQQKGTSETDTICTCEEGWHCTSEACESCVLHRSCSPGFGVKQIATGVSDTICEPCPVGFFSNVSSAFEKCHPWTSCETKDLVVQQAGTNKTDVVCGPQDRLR

| Binder | Kd | koff | kon |
| --- | --- | --- | --- |
| B1 | 2770 nM | 0.0705 s⁻¹ | 25400 M⁻¹ s⁻¹ |
| B2 | 760 nM | 0.0374 s⁻¹ | 49100 M⁻¹ s⁻¹ |
| B3 | 90.6 nM | 0.0084 s⁻¹ | 92700 M⁻¹ s⁻¹ |
| B4 | 86.2 nM | 0.00409 s⁻¹ | 47400 M⁻¹ s⁻¹ |
| B5 | 47.5 nM | 0.00442 s⁻¹ | 93100 M⁻¹ s⁻¹ |
| B6 | 182 nM | 0.0187 s⁻¹ | 103000 M⁻¹ s⁻¹ |
| B7 | 2310 nM | 0.107 s⁻¹ | 46400 M⁻¹ s⁻¹ |
| B8 | 935 nM | 0.0118 s⁻¹ | 12700 M⁻¹ s⁻¹ |
| B9 | 2490 nM | 0.107 s⁻¹ | 42700 M⁻¹ s⁻¹ |
| B10 | 754 nM | 0.0447 s⁻¹ | 59300 M⁻¹ s⁻¹ |
| B11 | 1030 nM | 0.045 s⁻¹ | 43700 M⁻¹ s⁻¹ |
| B12 | 492 nM | 0.0177 s⁻¹ | 36100 M⁻¹ s⁻¹ |
